Measurements published in the supplement of paper PMC10724198.
± gives the standard deviation of the averaged measurements.

Assays:
Saccharomyces cerevisiae [1] = assay: protein stability index of tFT-peptide fusion (C-terminal peptide) (PSI (0-1 scale)); higher = more stable (slower turnover)
Procedure: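 MPS profiling in S. cerevisiae of the tFT-X12 degron library: putative degron peptides plus stable controls, 12 aa, fused to the C-terminus of a sfGFP-mCherry timer. Cells are FACS-sorted into 8 mCherry/sfGFP bins and deep-sequenced. PSI runs from 0 (unstable) to 1 (stable). Backgrounds are wild type, das1Δ and doa10Δ at 30 °C, and wild type, das1Δ, cdc34-1 and cdc53-1 at 37 °C; 2-3 technical replicates each.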

Saccharomyces cerevisiae [2] = assay: as above; conditions: genetic background: wild type; temperature: 30 C
[3] = genetic background: cdc34-1, temperature: 37 C
[4] = genetic background: cdc53-1, temperature: 37 C
[5] = genetic background: das1 deletion, temperature: 30 C
[6] = genetic background: das1 deletion, temperature: 37 C
[7] = genetic background: doa10 deletion, temperature: 30 C
[8] = genetic background: wild type, temperature: 30 C
[9] = genetic background: wild type, temperature: 37 C
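Further: PSI is a weighted mean of sequencing reads over stability bins, variants kept only with over 10 reads, mCherry proximal and sfGFP distal, peptide attached via GGGS linker.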

Sequence	protein stability index (Saccharomyces cerevisiae [2])	also measured
LWGVGFLFVLVG	–	protein stability index (Saccharomyces cerevisiae [1]; [3]): 0.1858 ± 0.0014; protein stability index (Saccharomyces cerevisiae [1]; [4]): 0.268 ± 0.024; protein stability index (Saccharomyces cerevisiae [1]; [5]): 0.229 ± 0.036; protein stability index (Saccharomyces cerevisiae [1]; [6]): 0.403 ± 0.039; protein stability index (Saccharomyces cerevisiae [1]; [7]): 0.105 ± 0.0094; protein stability index (Saccharomyces cerevisiae [1]; [8]): 0.131 ± 0.017; protein stability index (Saccharomyces cerevisiae [1]; [9]): 0.183 ± 0.014
GPPPPPSLLLLC	–	protein stability index (Saccharomyces cerevisiae [1]; [3]): 0.6 ± 0.04; protein stability index (Saccharomyces cerevisiae [1]; [4]): 0.712 ± 0.0078; protein stability index (Saccharomyces cerevisiae [1]; [5]): 0.614 ± 0.025; protein stability index (Saccharomyces cerevisiae [1]; [6]): 0.721 ± 0.011; protein stability index (Saccharomyces cerevisiae [1]; [7]): 0.201 ± 0.0072; protein stability index (Saccharomyces cerevisiae [1]; [8]): 0.211 ± 0.015; protein stability index (Saccharomyces cerevisiae [1]; [9]): 0.345 ± 0.02
IPHHFSPPLPSP	0.772 ± 0.082	–
RSRATIGSQILS	0.688 ± 0.01	–
GDCYLCSACEWW	0.753 ± 0.016	–
PAPLLPLSPPRP	0.709 ± 0.042	–
EKSQMPPAPAPK	0.703 ± 0.04	–
PPGPPPPPAPPL	0.724 ± 0.062	–
RSLRSSRSGTLA	0.848 ± 0.014	–
PTTAPPIPLPSP	0.72 ± 0.035	–
GGGAGRGGVVVR	0.685 ± 0.023	–
GFVCRRFRFGCI	0.634 ± 0.037	–
LFPCPLRPGCLP	0.699 ± 0.099	–
LVVLGVRGGGGG	0.701 ± 0.047	–
YSPFGKRLLPPC	0.702 ± 0.057	–
PPLRFFPPVSSH	0.667 ± 0.014	–
PCPPAPPRFLLR	0.732 ± 0.016	–
LLLPPRPPPSVP	0.742 ± 0.15	–
CLFWWDASTILP	0.68 ± 0.13	–
RSASPPRPLPPP	0.737 ± 0.032	–
PPPPPPPPAPPS	0.68 ± 0.035	–
PPPPFLPVLLFP	0.696 ± 0.08	–
PPRLSPAPPASP	0.605 ± 0.009	–

Sequence	protein stability index (Saccharomyces cerevisiae [2])	also measured
GVLCGQGRAGAA	0.7 ± 0.014	–
VCRRSVLHSCWS	0.678 ± 0.0097	–
QTNIGRKRTLPR	0.718 ± 0.013	–
AYYRPQNLSPVT	0.675 ± 0.083	–
QFIGVGKVQRFG	0.59 ± 0.014	–
PRSPSPPRSPSP	0.66 ± 0.12	–
FHYALRLLDFNN	0.716 ± 0.12	–
GGLGGAGAGVVC	0.694 ± 0.11	–
QIYHIANPKILN	0.696 ± 0.055	–
RISIHGECHFHK	0.654 ± 0.014	–
RGTGRLDRLGLR	0.662 ± 0.043	–
GGSLVRGAGVRS	0.686 ± 0.031	–
KVKIKREKKKRK	0.672 ± 0.017	–
SPLYCGLSLPSV	0.664 ± 0.027	–
LLSLSCLPLHFR	0.574 ± 0.088	–
RWAMGAAGGLQA	0.697 ± 0.021	–
SWPLIFSLPNFI	0.716 ± 0.026	–
INARCNRTIVRP	0.646 ± 0.021	–
GRGEGVDRSSRR	0.703 ± 0.017	–
RSTLSPSPRPSP	0.674 ± 0.0042	–
SVGFVGVGCRGR	0.707 ± 0.025	–
STEFCRIIYRGP	0.681 ± 0.023	–
VVLTGPGYCLTL	0.763 ± 0.047	–
